Reference: the supplement of paper PMC10126150
± gives the standard deviation of the averaged measurements.

Tested on: ATP
Assay: switch fluorescence ratio, 500 uM ATP over buffer (Cy3 cluster intensity, sum of 5 cycles each) (fold (ratio)); higher = stronger signal-on switching upon ATP binding; sequences stand for … in TCGTCGGCAGCGTCAGATGTGTATAAGAGACAGTTTTTTTTTTTTTTTTTTTTTTTTT…TC
Settings: aptamer strand: ATP DNA aptamer (quencher-CACCTGGGGGAGTATTGCGGAGGAAGG + anchor), 100 nM annealed; ATP concentration: 500 uM
Method in brief: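 After annealing to 100 nM quencher-labelled ATP aptamer, Cy3-labelled switching-strand clusters on a modified Illumina MiSeq flow-cell were imaged in selection buffer. A second image followed after 15 min with 500 uM ATP at 22 °C, and five such buffer/ATP cycles were done, each separated by NaOH stripping and re-annealing. The fluorescence ratio, averaged per switch-domain sequence, is summed target-cycle over summed buffer-cycle Cy3 intensity per cluster, with clusters outside 100-1000 RFU excluded.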
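Also: ATP exposure 15 min at 22 °C before imaging.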

Sequence | switch fluorescence ratio
GATGTAATTG | 0.9822 ± 0.0094
TCAGAGGAG | 1.01 ± 0.025
GGATGCAGGG | 0.999 ± 0.012
AATAAATT | 0.9585 ± 0.0081
TGTGTGGGGG | 1.01 ± 0.031
TTTATATC | 1.07 ± 0.11
CACCGGAGGG | 1.25 ± 0.4
TATACGGGGG | 0.992 ± 0.049
AAAGTGCATC | 0.992 ± 0.0037
TCAATGTGTC | 1.03 ± 0.12
GGGGGGAGGG | 1 ± 0.052
CTGATATAAG | 1.03 ± 0.017
TTGCTTGGTT | 0.996 ± 0.011
TTGGACTAGC | 0.981 ± 0.033
AAGAAGTTGG | 0.985 ± 0.038
GGCCTTTGCT | 1.02 ± 0.041
TATTCTGGAT | 0.993 ± 0.026
AAGAGACAGA | 1.25 ± 0.066
GACTCATAAT | 1.004 ± 0.0015
GAGGGTGGGA | 0.983 ± 0.031
AAACCAAACT | 1.34 ± 0.31
TCAGTACGCA | 1.57 ± 0.095
GCCAAATTAG | 0.956 ± 0.011
TTTGGTGTAG | 1.02 ± 0.015
ATAGTTATCT | 1.03 ± 0.026

Sequence | switch fluorescence ratio
GCTCGAGGGT | 1 ± 0.03
AAAATGGTGG | 1.02 ± 0.013
AAGTTTAGTC | 1.03 ± 0.034
CGCGGGTTTT | 1.0416 ± 0.00069
CACTAAATGT | 1 ± 0.035
GACGGCGCAG | 1.06 ± 0.14
TTATGTGTTG | 1.01 ± 0.011
CGGGGGTCTG | 1.01 ± 0.028
GAAAGGTATT | 0.975 ± 0.021
TTATCCAGGC | 1.02 ± 0.12
TTAACTGGGA | 0.998 ± 0.026
ACGCATTCAT | 1.14 ± 0.027
GATATCGATG | 1.029 ± 0.0089
AAATTAAATT | 0.996 ± 0.039
ATGAGAGGAA | 0.981 ± 0.028
AATCGGTTCT | 0.979 ± 0.05
GCTTTAGTAT | 0.9963 ± 0.0058
ACCCTCCGGC | 2.45 ± 0.026
GAAGGGGACT | 1.04 ± 0.076
TAAGCGGGGC | 1.0163 ± 0.00063
GCCTTGTGCG | 1.01 ± 0.018
TTTGAGGATT | 1 ± 0.027
TGGGGATGAT | 1 ± 0.022
CCTGACAGCG | 1.012 ± 0.0083
CGCTGGGGGT | 1.16 ± 0.2

Sequence | switch fluorescence ratio
TTACCTACTT | 1.17 ± 0.12
CCTAACGCAG | 2.32 ± 0.43
TGATACCGTG | 1.01 ± 0.017
TATATGTAGA | 1.03 ± 0.011
TGTGAGTCGG | 0.948 ± 0.03
GTTATCGGCG | 1.01 ± 0.022
AATTTGAGGG | 0.979 ± 0.016
TTGGCTACTG | 0.962 ± 0.065
GTACTTGGGA | 1.04 ± 0.074
ATTTTTTAGA | 0.989 ± 0.021
TGTGGGGGG | 0.951 ± 0.025
TGGGGGGGGA | 1.02 ± 0.036
GTAGGGGTAA | 0.974 ± 0.036
TTGGTTTTT | 0.993 ± 0.019
GTTGTTGTTG | 0.996 ± 0.045
GGCGGATCGA | 0.998 ± 0.063
AAGTTGAATA | 0.985 ± 0.021
TTGGGGGAAT | 0.992 ± 0.026
GGGGGAGTGC | 1.06 ± 0.12
TCAGGTGGGG | 1.07 ± 0.046
AATATTTAGA | 0.9837 ± 0.0059
TCGTTTAGGA | 0.974 ± 0.031
GGCAGGGGTA | 0.995 ± 0.028
GTTTTAATTA | 1.01 ± 0.021
GTTGGGATTC | 0.986 ± 0.049

Sequence | switch fluorescence ratio
AAAAAGGAAT | 0.982 ± 0.011
AAATTCATTG | 0.969 ± 0.04
TTTATTAATC | 0.99544 ± 0.00085
GCGTTTGAAA | 1.01 ± 0.013
GGGCATAACT | 1.04 ± 0.044
AACCGGGGGT | 0.991 ± 0.038
CCTGGAAATT | 1.02 ± 0.023
AGGGGTTTCT | 0.984 ± 0.016
GCTATATCTA | 1.02 ± 0.022
GTAGGGGAGC | 0.977 ± 0.06
GTTCGGGCAT | 1.07 ± 0.026
TTGTTTGTAT | 0.9647 ± 0.0073
GGTAGCCGGT | 1.01 ± 0.041
GGGTGAGTGG | 1.01 ± 0.021
TGGGGATCTT | 0.972 ± 0.057
AAATTGGTAA | 1 ± 0.017
TCCTTTTGTT | 1.06 ± 0.15
TTCGAGTCCG | 1.03 ± 0.06
TTAGGGGGGC | 1.02 ± 0.053
TAGAGAGGGC | 1.011 ± 0.0093
TTTAGCATTT | 0.997 ± 0.014
CAGTGCGGAG | 0.999 ± 0.016
TCAGTGTGTT | 1.02 ± 0.038
AAAGGGTTTT | 1.01 ± 0.022
ATTCTGTACG | 1.05 ± 0.023
